Molecular target: T1, HLA-A2/MAGE-A4 complex (HLA-A*02:01 extracellular domain, human β2m, MAGE-A4 peptide 230-239) (human, UniProt P04439 25-299 at identity 0.94); P61769 21-119)
T1 construct: also called MAGE-A4/HLA-A2 complex; pMHC
Assay: phage display biopanning and screening of the lambda and optimized kappa libraries

| binding result | Binder |
| --- | --- |
| binds | M0860 scFv (scFv, Rabbit scFv from the biopanning screen) scFv: QSVKESGGRLVTPGTPLTLTCTVSGFSLSNYAMSWVRQAPGKGLEYIGIVSSGGTTYYASWAKGRFTISKTSTTVDLKITSPTTEDTATYFCAKDLYYGPTTYSAFNLWGQGTLVTISSGGGGSGGGGSGGGGSGGGGASELVLTQPQSVSGSLGQTVSISCKRARDNIEDYYVHWYQQYPGKTPTIVIYKDDQRPSGVPDRFSGSIDSTSNSASLTITGLLAEDEADYFCQSFDNNANVVFGGGTQLTVTG |
| binds | M0864 scFv (scFv, Rabbit scFv from the biopanning screen) scFv: QSVKESGGGLVTPGTPLTLTCTVSGFSLSTYAISWVRQAPGKGLEWIGFIDTVDSAYYASWAKGRFTISKTSSTTVDLKMTSPTTEDTATYFCAKLRYGDYGDYTLWGQGTLVTVSSGGGGSGGGGSGGGGSGGGGASELVMTQTPSPVSGAVGGTVTIKCQASQNIYSYLAWYQQKPGQPPKLLIYKASTLASGVPSRVKGSGSGTEYTLTISGVQAADAATYYCQCTYYDSNTFGGGTEVVVK |
| binds | M0854 scFv (scFv, Rabbit scFv from the biopanning screen) scFv: QSVKESWGRLVTPGGSLTLTCTVSGIDLNNYAMGWVRQAPGKGLEWIGTINNDGATYYPSWARGRFTISKTSTTVDLKITSPTTEDTATYFCARTYGSNGDVYWGYFNLWGQGTLVTVSSGGGGSGGGGSGGGGSGGGGASALELTQTPASVEVAVGGTVTINCQASQSIGGALNWYQQKSGQPPKLLIYLASTLASGVSSRFKGSGSGTQFTLTISGVEAADAATYYCQQGYSASNIDNAFGGGTEVVVK |
| binds | M0849 scFv (scFv, Rabbit scFv from the biopanning screen) scFv: QEQLEESGGGLVTPGGTLTLTCTVSGFSLSNYAMGWVRQAPGKGLEWIGTINDGGTAFYAKWLKGRFTISRTSTTVDLKITSPTTEDTATYFCARAYGSNGDVYWGYFNLWGQGTLVTISSGGGGSGGGGSGGGGSGGGGASELVMTQTPSSVSEPVGGTVTIKCQASQSIGSNLAWYQQRPGQPPKLLIYSASTLASGVSSRFKGSGSGTESTLTISGVQAADAATYYCQQGYSSSNVDNVFGGGTELEIL |
| binds | M0848 scFv (scFv, Rabbit scFv from the biopanning screen) scFv: QEQLVESGGGLVTPGTPLTLTCTVSGFSLSSYAMGWVRQAPGKGLEWIGTINDGGTAFYASWVKGRFTISRTSTTVDLRVTSPTTEDTATYFCARAYGSNGDVYWGYFNLWGQGTLVTVSSGGGGSGGGGSGGGGSGGGGASELDLTQTPASVEVAVGGTVTIKCQASQSIGSYLSWYQQKPGQRPKLLIFRASTLASGVSSRFKGSGSGTQFTLTISGVECADAATYYCQQGYSSTNLDNVFGGGTEVVVK |
| binds | M0856 scFv (scFv, Rabbit scFv from the biopanning screen) scFv: QQQLEESGGGLVTPGTPLTLTCTVSGIDLSSYAMGWVRQAPGKGLEWIGTINDGGSAFYASWVKGRFTISRTSTTVDLKITSPTAEDTATYFCAKTYGTNGDVYWGYFNLWGQGTLVTISSGGGGSGGGGSGGGGSGGGGASELVMTQTPASVSEPVGGTVTIKCQASQSIGSNLAWYQQKPGQPPKLLIYYESILASGVPSRFSGSGSGTEYTLTISGAQADDAATYYCQQGYSSSNILNAFGGGTEVVVK |
| binds | M0850 scFv (scFv, Rabbit scFv from the biopanning screen) scFv: QEQLEESGGGLVTPGTPLTLTCTASGFSLSSYAMIWVRQAPGKGLEWIGTINDGGTAFYANWVKGRFTISRTSTTVDLKMTSPTTEDTATYFCARAYGSNGDVYWGYVNLWGQGTLVTVSSGGGGSGGGGSGGGGSGGGGASELVMTQTPASVSEPVGGTVTIKCQASQSIGSNLAWYQQKPGQPPKLLIYAAANLASGVSSRFKGSRSGTEYTLTISGVQAADAATYYCQQGYSSSNVANVFGGGTELEIL |
| binds | M0861 scFv (scFv, Rabbit scFv from the biopanning screen) scFv: QSVKESGGRLVTPGTPLTLTCTVSGFSLSNYAMSWVRQAPGKGLEYIGIVSSGGTTYYASWAKGRFTISKTSTTVDLKITSPTTEDTATYFCAKDLYYGPTTYSAFNLWGQGTLVTISSGGGGSGGGGSGGGGSGGGGASELVLTQPASVQVNLGQTVSLTCTADTLSRSYASWYQLKPGQAPVLLIYRDTSRPSGVPDRFSGSSSGNTATLTISGAQAGDEGDYVCATSDGSGSNFQLFGGGTQLTVTG |

More lines, now with the values behind:

| Binder | binding result |
| --- | --- |
| M0866 scFv (scFv, Rabbit scFv from the biopanning screen) scFv: QSVKESGGRLVTPGTPLTLTCTASGFTISSSAISWVRQAPGKGLEYIGIIRSGGTTDYASWAKGRFAISKTSTTVDLKITSPTTEDTATYFCARDPPYITSTYFDLWGQGTLVTVSSGGGGSGGGGSGGGGSGGGGASELVLTQPQSVSGSLGQTVSISCKRARDSVESYDVHWYQQHPGKTPTIVIYKDDQRPSGVPDRFSGSIDSTSNSASLTITGLLAEDEADYFCQSFDGDAVVFGGGTQLTVTG | binds |
| M0862 scFv (scFv, Rabbit scFv from the biopanning screen) scFv: PEQLMESGGGLVTPGGVLTLTCTASGFSFSSYGVNWVRQAPGKGLEWIGFIFGDGTTYYANWAKGRFTISKTSTTVDLKMTSPTTEDTATYFCARDGYGGYDYIINLWGQGTLVTVSSGGGGSGGGGSGGGGSGGGGASAQVLTQTPASVSAAVGGTVSISCQSSQSVVNNNWLAWYQQKPGQPPKLLIYKASTLESGVPSRFKGSGSGTQFTLTISGVQADDAATYYCLGEFSCSSADCHAFGGGTELEIL | binds |
| M0851 scFv (scFv, Rabbit scFv from the biopanning screen) scFv: QEQLEESGGGLVTPGTPLTLTCTASGFSLSSYAMIWVRQAPGKGLEWIGTINDGGTAFYASWVKGRFTISRTSTTVDLKITSPTTEDTATYFCARAYGSNGDVYWGYVNLWGQGTLVTISSGGGGSGGGGSGGGGSGGGGASELVMTQTPSSVSAAVGGTVTINCQASQNIGSVFAWYQQKPGQPPKLLIYKASSLASGVPSRFKGSGSGTQFTLTISGVEAADAATYYCQQGASSSNVDNIFGGGTEVVVK | binds |
| M0863 scFv (scFv, Rabbit scFv from the biopanning screen) scFv: PEQLMESGGGLVTPGGVLTLTCTASGFSFSSYGVNWVRQAPGKGLEWIGFIFGDGTTYYANWAKGRFTISKTSTTVDLKMTSPTTEDTATYFCARDGYGGYDYIINLWGQGTLVTVSSGGGGSGGGGSGGGGSGGGGASAQVLTQTPASVSAAVGGTVSISCQSSQSVVNNNWLAWYQQKPGQPPKLLIYKASTLESGVPSRFKGSGSGTQFTLTISGVQADDAATYYCQGAYSGNIYYNAFGGGTEVVVK | binds |
| M0853 scFv (scFv, Rabbit scFv from the biopanning screen) scFv: QQQLVESGGGLVTPGTPLTLTCTVSGFSLSNYAMGWVRQAPGKGLEWIGTINDGGTAFYANWLKGRFTISRTSTTVDLKITSPTTEDTATYFCARAYGSNGDVYWGYFNLWGQGTLVTVSSGGGGSGGGGSGGGGSGGGGASELVMTQTASPVSAAVGGTVTINCQASQSISSRSLSWYQQKPGQPPKLLIYEASKLASGVPSRFSGSGSGTQFTLTISGVQADDAATYYCQQGYSSSNVDNFGGGTEVVVK | binds |
| M0852 scFv (scFv, Rabbit scFv from the biopanning screen) scFv: QQQLEESGGGLVTPGTPLTLTCTVSGFSLSNYAMGWVRQAPGKGLEWIGTINDGGTAFYANWLKGRFTISRTSTTVDLKITSPTTEDTATYFCARAYGSNGDVYWGYFNLWGQGTLVTVSSGGGGSGGGGSGGGGSGGGGASELVMTQTASPVSAAVGGTVTINCQASQSISSRSLSWYQQKPGQPPKLLIYEASKLASGVPSRFSGSGSGTQFTLTISGVQADDAATYYCQQGYSSSNVDNVFGGGTEVVVK | binds |
| M0857 scFv (scFv, Rabbit scFv from the biopanning screen) scFv: QQQLVESGGRLVTPGTPLTLTCTASGIDLNSNAMSWVRQGPGKGLEWIGDIWSGGYTDYASWAKGRFTISKTSTTVDLKMTSLTAADTATYFCARDRLAGDGVVDYDLWGQGTLVTISSGGGGSGGGGSGGGGSGGGGASELDMTQTPASVEVAVGGTVTIKCQASQNIYSNLAWYQQKPGQRPKLLIYGASTLASGVPSRFKGSGSGTEYTLTINGVQAADAATYYCQQGFSSSNVDNVFGGGTEVVVK | binds |
| M0865 scFv (scFv, Rabbit scFv from the biopanning screen) scFv: PAALMESGGRLVTPGTPLTLTCTVSGIDLSTFAMTWVRQAPGKGLEWLGIINTGGSAYYTSWAKGRFTISRTSTTVDLKITSPTTEDTATYFCARGDWSSATDLWGQGTLVTISSGGGGSGGGGSGGGGSGGGGASDPDMTQTPSSVSAAVGGTVTINCQASQSVYDNKVLAWYRQKPGQPPKLLIYKASTLASGVPSRFKGRGSGTQFTLTISGVQADDAATYYCLGEFSCSSADCHAFGGGTELEIL | binds |
| M0859 scFv (scFv, Rabbit scFv from the biopanning screen) scFv: QSVKESGGRLVTPGTPLTLTCTVSGFSLSNYAMSWVRQAPGKGLEYIGIVSSGGTTYYASWAKGRFTISKTSTTVDLKITSPTTEDTATYFCAKDLYYGPTTYSAFNLWGQGTLVTISSGGGGSGGGGSGGGGSGGGGASELVLTQPQSVSGSLGQTVSISCKRARDNIEDYYVHWYQQHPGKTPTIVIHKDDQRPSGVPDRFSGSIDSTSNSASLTITGLLAEDEADYFCQSFDNDASPVFGGGTQLTVTG | binds |
| M0858 scFv (scFv, Rabbit scFv from the biopanning screen) scFv: QSVEESGGRLVTPGTPLTLTCTVSGFSLSNYAMSWVRQAPGKGLEYIGIVSSGGTTYYASWAKGRFTISKTSTTVDLKITSPTTEDTATYFCAKDLYYGPTTYSAFNLWGQGTLVTVSSGGGGSGGGGSGGGGSGGGGASELVLTQPQSVSGSLGQTVSISCKRARNNIEDYYVHWYQQHPGRSPTIVIHKDDQRPSGVPDRFSGSIDSTSNSASLTITGLLAEDEADYFCQSFDNNANPVFGGGTQLTVTG | binds |
| M0855 scFv (scFv, Rabbit scFv from the biopanning screen) scFv: QQQLEESGGGLVTPGTPLTLTCTVSGIDLSSYAMGWVRQAPGKGLEWIGTINDGGSAFYASWVKGRFTISRTSTTVDLKITSPTAEDTATYFCAKTYGTNGDVYWGYFNLWGQGTLVTISSGGGGSGGGGSGGGGSGGGGASELVMTQTPASVSEPVGGTVTIKCQASQSIGSNLAWYQQKPGQPPKLLIYYESILASGVPSRFSGSGSGTEYTLTISGAQADDAATYYCQQGYSSSNIDNAFGGGTEVVVK | binds |
